Consider 125 sequences from the supplement of paper PMC9112550, “Optimization of the antimicrobial peptide Bac7 by deep mutational scanning” (BMC Biology, 2022).

This data set relates to Escherichia coli TOP10. The data set can be described thus: shrunken log2 fold change of peptide-encoding DNA abundance (4.5 h post-induction vs induction); higher = less antimicrobial activity (less host growth inhibition). Conditions: time post-induction: 4.5 h; library: site-saturation at positions 5, 18, 19, 20.
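Note: peptides expressed intracellularly from a pBAD plasmid library in pooled LB shake-flask culture, induced with 0.3% L-arabinose, DNA abundance read by NGS, three biological replicates, DESeq2 with apeglm shrinkage.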

For RRIRARPPRLPRPRPRPYSYPRP, the “shrunken log2 fold change” value is -0.292.

In the case of RRIRLRPPRLPRPRPRPFKIPRP, the “shrunken log2 fold change” value was -0.00613.

On to RRIRERPPRLPRPRPRPPWIPRP, for which the “shrunken log2 fold change” value was -0.042.

Consider RRIRSRPPRLPRPRPRPIFNPRP, for which the “shrunken log2 fold change” value is -0.317.

RRIRYRPPRLPRPRPRPRGCPRP: the “shrunken log2 fold change” value was -0.286.

On to RRIRNRPPRLPRPRPRPDVGPRP, for which the “shrunken log2 fold change” value is -0.251.

In the case of RRIRKRPPRLPRPRPRPYWYPRP, the “shrunken log2 fold change” value was -0.667.

RRIRLRPPRLPRPRPRPVFYPRP: the “shrunken log2 fold change” value was -0.5.

Consider RRIRDRPPRLPRPRPRPEKYPRP, for which the “shrunken log2 fold change” value turned out to be 0.0312.

For RRIRPRPPRLPRPRPRPHIHPRP, the “shrunken log2 fold change” value is -0.82.

Take RRIRMRPPRLPRPRPRPIMLPRP: the “shrunken log2 fold change” value was -0.351.

Regarding RRIRGRPPRLPRPRPRPLYCPRP, the “shrunken log2 fold change” value is -0.0212.

As to RRIRGRPPRLPRPRPRPWSAPRP, the “shrunken log2 fold change” value was 0.232.

RRIRTRPPRLPRPRPRPYIYPRP: the “shrunken log2 fold change” value was -0.706.

As for RRIRWRPPRLPRPRPRPRFLPRP, the “shrunken log2 fold change” value was determined as 0.0174.

As for RRIRRRPPRLPRPRPRPICMPRP, the “shrunken log2 fold change” value came out at 0.296.

With RRIRRRPPRLPRPRPRPKPIPRP, the “shrunken log2 fold change” value is 0.357.

As to RRIRVRPPRLPRPRPRPNPGPRP, the “shrunken log2 fold change” value is -0.131.

On to RRIRNRPPRLPRPRPRPNLDPRP, for which the “shrunken log2 fold change” value is -0.136.

Regarding RRIRCRPPRLPRPRPRPYQCPRP, the “shrunken log2 fold change” value is -0.133.

On to RRIRARPPRLPRPRPRPYIYPRP, for which the “shrunken log2 fold change” value is -0.346.

On to RRIRHRPPRLPRPRPRPHILPRP, for which the “shrunken log2 fold change” value is -0.084.

As to RRIRCRPPRLPRPRPRPAPRPRP, the “shrunken log2 fold change” value worked out at 0.915.

For RRIRVRPPRLPRPRPRPWNFPRP, the “shrunken log2 fold change” value is -0.102.

For the sequence RRIRNRPPRLPRPRPRPFGPPRP, the “shrunken log2 fold change” value is -0.406.

For RRIRRRPPRLPRPRPRPWLAPRP, the “shrunken log2 fold change” value is 0.35.

For RRIRTRPPRLPRPRPRPGYSPRP, the “shrunken log2 fold change” value stood at 1.78.

Take RRIRKRPPRLPRPRPRPHCHPRP: the “shrunken log2 fold change” value turned out to be 0.0986.

As for RRIRKRPPRLPRPRPRPKFPPRP, the “shrunken log2 fold change” value was determined as 0.134.

Turning to RRIRRRPPRLPRPRPRPWQSPRP, the “shrunken log2 fold change” value is -0.0153.

Take RRIRQRPPRLPRPRPRPFAKPRP: the “shrunken log2 fold change” value was -0.0663.

Take RRIRLRPPRLPRPRPRPWPIPRP: the “shrunken log2 fold change” value is 0.0461.

On to RRIRWRPPRLPRPRPRPYCQPRP, for which the “shrunken log2 fold change” value is -0.694.

Take RRIRARPPRLPRPRPRPPGYPRP: the “shrunken log2 fold change” value was 0.365.

For the sequence RRIRRRPPRLPRPRPRPSWVPRP, the “shrunken log2 fold change” value is -0.223.

As for RRIRIRPPRLPRPRPRPYNIPRP, the “shrunken log2 fold change” value was -0.257.

With RRIRPRPPRLPRPRPRPMQWPRP, the “shrunken log2 fold change” value was 0.169.

With RRIRVRPPRLPRPRPRPTLFPRP, the “shrunken log2 fold change” value was -0.0123.

With RRIRTRPPRLPRPRPRPEFEPRP, the “shrunken log2 fold change” value came out at 0.0862.

As to RRIRNRPPRLPRPRPRPVCWPRP, the “shrunken log2 fold change” value is 0.469.

On to RRIRERPPRLPRPRPRPTAVPRP, for which the “shrunken log2 fold change” value is -0.113.

As to RRIRYRPPRLPRPRPRPSSAPRP, the “shrunken log2 fold change” value is -0.197.

For the sequence RRIRNRPPRLPRPRPRPMGTPRP, the “shrunken log2 fold change” value is -0.0967.

Turning to RRIRVRPPRLPRPRPRPKYAPRP, the “shrunken log2 fold change” value was -0.236.

As to RRIRPRPPRLPRPRPRPGPSPRP, the “shrunken log2 fold change” value amounted to 0.0312.

As to RRIRERPPRLPRPRPRPMNNPRP, the “shrunken log2 fold change” value was -0.637.

Consider RRIRIRPPRLPRPRPRPPLDPRP, for which the “shrunken log2 fold change” value was found to be 0.0528.

Consider RRIRVRPPRLPRPRPRPEMFPRP, for which the “shrunken log2 fold change” value is -0.0822.

RRIRGRPPRLPRPRPRPCLYPRP: the “shrunken log2 fold change” value amounted to 0.0217.

Regarding RRIRDRPPRLPRPRPRPGPEPRP, the “shrunken log2 fold change” value is 0.544.

Take RRIRQRPPRLPRPRPRPTYKPRP: the “shrunken log2 fold change” value is -0.549.

With RRIRVRPPRLPRPRPRPLQVPRP, the “shrunken log2 fold change” value is -0.0194.

Consider RRIRARPPRLPRPRPRPYDNPRP, for which the “shrunken log2 fold change” value was -0.0875.

Consider RRIRWRPPRLPRPRPRPDIPPRP, for which the “shrunken log2 fold change” value is -0.367.

Take RRIRFRPPRLPRPRPRPIKSPRP: the “shrunken log2 fold change” value was -0.271.

In the case of RRIRSRPPRLPRPRPRPASLPRP, the “shrunken log2 fold change” value was -0.0507.

In the case of RRIRCRPPRLPRPRPRPDQRPRP, the “shrunken log2 fold change” value was -0.254.

For the sequence RRIRNRPPRLPRPRPRPMSLPRP, the “shrunken log2 fold change” value is -0.0381.

As for RRIRQRPPRLPRPRPRPIMIPRP, the “shrunken log2 fold change” value is -0.452.

In the case of RRIRGRPPRLPRPRPRPFWHPRP, the “shrunken log2 fold change” value was 0.297.

For the sequence RRIRERPPRLPRPRPRPMGCPRP, the “shrunken log2 fold change” value was 0.111.

For RRIRKRPPRLPRPRPRPYDMPRP, the “shrunken log2 fold change” value is -0.0843.

For the sequence RRIRNRPPRLPRPRPRPYQMPRP, the “shrunken log2 fold change” value was -0.246.

As to RRIRHRPPRLPRPRPRPLGLPRP, the “shrunken log2 fold change” value is 0.393.

Regarding RRIRMRPPRLPRPRPRPVICPRP, the “shrunken log2 fold change” value was found to be 0.00711.

As to RRIRMRPPRLPRPRPRPYVMPRP, the “shrunken log2 fold change” value is -0.0161.

For RRIRRRPPRLPRPRPRPMYDPRP, the “shrunken log2 fold change” value is -0.267.

Regarding RRIRTRPPRLPRPRPRPYIEPRP, the “shrunken log2 fold change” value was -1.14.

As for RRIRMRPPRLPRPRPRPTWAPRP, the “shrunken log2 fold change” value was 0.192.

With RRIRIRPPRLPRPRPRPEADPRP, the “shrunken log2 fold change” value came to 0.196.

Consider RRIRARPPRLPRPRPRPLGIPRP, for which the “shrunken log2 fold change” value was -0.12.

Turning to RRIRSRPPRLPRPRPRPYDFPRP, the “shrunken log2 fold change” value is -0.195.

On to RRIRLRPPRLPRPRPRPCFIPRP, for which the “shrunken log2 fold change” value was determined as 0.554.

For RRIRFRPPRLPRPRPRPYKEPRP, the “shrunken log2 fold change” value was -0.0907.

Consider RRIRHRPPRLPRPRPRPFDPPRP, for which the “shrunken log2 fold change” value is -0.101.

Consider RRIRPRPPRLPRPRPRPRHSPRP, for which the “shrunken log2 fold change” value is -0.0642.

As to RRIRMRPPRLPRPRPRPDTAPRP, the “shrunken log2 fold change” value is 1.24.

On to RRIRQRPPRLPRPRPRPNMLPRP, for which the “shrunken log2 fold change” value was -0.285.

As for RRIRGRPPRLPRPRPRPETAPRP, the “shrunken log2 fold change” value worked out at 1.76.

On to RRIRVRPPRLPRPRPRPFYNPRP, for which the “shrunken log2 fold change” value is -0.565.

In the case of RRIRWRPPRLPRPRPRPWIDPRP, the “shrunken log2 fold change” value was -0.049.

Turning to RRIRMRPPRLPRPRPRPNGKPRP, the “shrunken log2 fold change” value was 0.321.

On to RRIRERPPRLPRPRPRPILKPRP, for which the “shrunken log2 fold change” value was -0.401.

For RRIRERPPRLPRPRPRPGMRPRP, the “shrunken log2 fold change” value worked out at 0.471.

Regarding RRIRDRPPRLPRPRPRPPNWPRP, the “shrunken log2 fold change” value was 0.28.

Turning to RRIRRRPPRLPRPRPRPTCEPRP, the “shrunken log2 fold change” value was 0.295.

For RRIRYRPPRLPRPRPRPVMVPRP, the “shrunken log2 fold change” value was -0.139.

As to RRIRTRPPRLPRPRPRPRYWPRP, the “shrunken log2 fold change” value is -0.156.

Regarding RRIRTRPPRLPRPRPRPYFSPRP, the “shrunken log2 fold change” value is -0.156.

Take RRIRIRPPRLPRPRPRPQNIPRP: the “shrunken log2 fold change” value was -1.22.

Regarding RRIRARPPRLPRPRPRPQIIPRP, the “shrunken log2 fold change” value was found to be 0.0561.

In the case of RRIRNRPPRLPRPRPRPDMSPRP, the “shrunken log2 fold change” value was found to be 0.000831.

With RRIRCRPPRLPRPRPRPMLNPRP, the “shrunken log2 fold change” value is -0.38.

As for RRIRERPPRLPRPRPRPFCYPRP, the “shrunken log2 fold change” value was -0.927.

Take RRIRVRPPRLPRPRPRPFGKPRP: the “shrunken log2 fold change” value was -0.151.

Take RRIRWRPPRLPRPRPRPQYVPRP: the “shrunken log2 fold change” value came out at 0.00889.

In the case of RRIRSRPPRLPRPRPRPYFQPRP, the “shrunken log2 fold change” value is -0.951.

Turning to RRIRIRPPRLPRPRPRPFEKPRP, the “shrunken log2 fold change” value is -0.103.

For the sequence RRIRPRPPRLPRPRPRPYEIPRP, the “shrunken log2 fold change” value is -0.0187.

RRIRRRPPRLPRPRPRPRCVPRP: the “shrunken log2 fold change” value is 0.402.

RRIRYRPPRLPRPRPRPQSVPRP: the “shrunken log2 fold change” value was -0.11.

On to RRIRIRPPRLPRPRPRPTEMPRP, for which the “shrunken log2 fold change” value is 0.112.

Consider RRIRNRPPRLPRPRPRPRNAPRP, for which the “shrunken log2 fold change” value came to 0.0122.

Take RRIRLRPPRLPRPRPRPLVYPRP: the “shrunken log2 fold change” value is -0.335.

Consider RRIRHRPPRLPRPRPRPKPYPRP, for which the “shrunken log2 fold change” value is -0.277.

With RRIRGRPPRLPRPRPRPLHRPRP, the “shrunken log2 fold change” value turned out to be 0.187.

With RRIRIRPPRLPRPRPRPPVVPRP, the “shrunken log2 fold change” value was 0.0726.

As for RRIRHRPPRLPRPRPRPNQLPRP, the “shrunken log2 fold change” value was -0.154.

Consider RRIRMRPPRLPRPRPRPRTFPRP, for which the “shrunken log2 fold change” value stood at 0.541.

As to RRIRTRPPRLPRPRPRPMLAPRP, the “shrunken log2 fold change” value came out at 0.306.

For the sequence RRIRDRPPRLPRPRPRPALSPRP, the “shrunken log2 fold change” value came out at 0.0869.

Regarding RRIRERPPRLPRPRPRPCGGPRP, the “shrunken log2 fold change” value is -0.0228.

As for RRIRKRPPRLPRPRPRPYLWPRP, the “shrunken log2 fold change” value is 0.125.

RRIRKRPPRLPRPRPRPNREPRP: the “shrunken log2 fold change” value is 0.0158.

In the case of RRIRTRPPRLPRPRPRPPPMPRP, the “shrunken log2 fold change” value was 0.54.

Regarding RRIRWRPPRLPRPRPRPRWHPRP, the “shrunken log2 fold change” value came out at 0.271.

On to RRIRSRPPRLPRPRPRPEKMPRP, for which the “shrunken log2 fold change” value was found to be 0.061.

On to RRIRHRPPRLPRPRPRPPQHPRP, for which the “shrunken log2 fold change” value was -0.177.

As for RRIRQRPPRLPRPRPRPPLMPRP, the “shrunken log2 fold change” value is 0.179.

As to RRIRNRPPRLPRPRPRPHIHPRP, the “shrunken log2 fold change” value was -0.445.

RRIRARPPRLPRPRPRPARWPRP: the “shrunken log2 fold change” value was determined as 0.95.

For RRIRGRPPRLPRPRPRPKYDPRP, the “shrunken log2 fold change” value came out at 1.62.

Turning to RRIRDRPPRLPRPRPRPAIRPRP, the “shrunken log2 fold change” value was determined as 0.53.

Turning to RRIRCRPPRLPRPRPRPGFRPRP, the “shrunken log2 fold change” value amounted to 0.498.

With RRIRMRPPRLPRPRPRPPRIPRP, the “shrunken log2 fold change” value is 0.226.
